This assay addresses T1, N-terminal portion of N-WASP (1st to 275th amino acid residues) fused to the Gal4 activation domain (pACT2) (UniProt Q95107 1-275).
T1 construct: range 1-275; Yeast two-hybrid prey; also called CRIB-motif-containing N-terminal portion of N-WASP; N-WASP CRIB motif
In words: yeast two-hybrid, beta-galactosidase colony-lift filter assay. The text has this:
The cDNAs encoding the wild-type, constitutively active, and dominant-negative mutants of Cdc42, Tc10, and RhoT were ligated to the Gal4 DNA-binding domain of the pGBT9 vector (Clontech). A cDNA fragment encoding the N-terminal portion of N-WASP (corresponding to 1st to 275th amino acid residues) (EMBO J. 15: 5326-5335 (1996), Nature 391: 93-96 (1998)) was fused to the Gal4 activation domain of pACT2 vector (Clontech) The yeast strain Y190 was sequentially transformed with the bait and prey plasmids. Double transformants were selected on plates of minimal synthetic dropout medium lacking leucine and tryptophan (SD/-Leu/-Trp). The activation of lacz reporter gene was analyzed by β-galactosidase colony-lift filter assay.
Cdc42 generates filopodia through binding to the CRIB motif (J. Biol. Chem. 270: 29071-29074 (1995)) of its target protein N-WASP, which activates Arp2/3-complex- and profilin-mediated actin polymerization (EMBO J. 15: 5326-5335 (1996), Nature 391: 93-96 (1998), Cell 97: 221-231 (1999)). To determine whether Tc10 and RhoT also bound to N-WASP, the yeast two-hybrid interaction assay was performed.

T1 sequence (Q95107 1-275 limits assumed): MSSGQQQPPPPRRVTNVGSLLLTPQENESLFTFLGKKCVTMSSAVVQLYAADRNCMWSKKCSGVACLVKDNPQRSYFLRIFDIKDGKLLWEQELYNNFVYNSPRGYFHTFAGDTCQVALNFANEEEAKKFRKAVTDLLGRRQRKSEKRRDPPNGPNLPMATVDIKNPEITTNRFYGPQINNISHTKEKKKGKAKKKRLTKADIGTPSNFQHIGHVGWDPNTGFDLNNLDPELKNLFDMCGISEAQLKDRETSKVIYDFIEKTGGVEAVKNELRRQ

B1: Dominant-negative mouse RhoT(T35N) fused to the Gal4 DNA-binding domain (pGBT9) (enzyme, not shown: small tags and cut ends)
chain: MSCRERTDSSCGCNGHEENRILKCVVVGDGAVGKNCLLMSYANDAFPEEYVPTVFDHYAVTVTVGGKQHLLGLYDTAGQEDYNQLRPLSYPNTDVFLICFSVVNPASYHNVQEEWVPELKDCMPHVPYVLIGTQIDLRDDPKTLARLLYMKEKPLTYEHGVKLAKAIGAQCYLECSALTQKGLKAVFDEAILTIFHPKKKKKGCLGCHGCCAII
notes: Yeast two-hybrid bait; also called RhoT(T3SN); RhoT DN
Consider B1, for which the binding result is reported as “no binding”.

These data come from patent publication US20050112748A1 (published 2005).
